The chains are these.
B1: FCHSD1 (parent)
chain: LEAAEVILEHAHRGEQTTSQVSWE
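Note: lentivirally expressed fusions sorted by FACS into six bins by GFP to DsRed ratio, PSI derived from sequencing read proportions per bin multiplied by bin number.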

The variants in this data set derive from B1. In words: protein stability index of a GFP-peptide fusion (GPS, HEK-293T) (PSI 1-6); higher = more stable. The settings on record: c terminus: a fixed tail appended.
As for LEAAEVILEHAKRGEQTTSQVSWE [H12K], the protein stability index is 4.07. For LEAAEVILEHADRGEQTTSQVSWE [H12D], the protein stability index stood at 4.04. Regarding LEAAEVILEHAERGEQTTSQVSWE [H12E], the protein stability index was found to be 4.92. Consider LEAAEVILEHATRGEQTTSQVSWE [H12T], for which the protein stability index is 4.11. With LEAAEVYLEHAHRGEQTTSQVSWE [I7Y], the protein stability index is 4.7.

With LEAAEVVLEHAHRGEQTTSQVSWE [I7V], the protein stability index is 4.75. As for LEAAEVSLEHAHRGEQTTSQVSWE [I7S], the protein stability index came to 4.92. Turning to LEAAEVRLEHAHRGEQTTSQVSWE [I7R], the protein stability index turned out to be 5.16. For LEAAEVQLEHAHRGEQTTSQVSWE [I7Q], the protein stability index is 4.55.

As to LEAAEVWLEHAHRGEQTTSQVSWE [I7W], the protein stability index amounted to 4.24.

On to LEAAEVPLEHAHRGEQTTSQVSWE [I7P], for which the protein stability index worked out at 4.89. As to LEAAEVILEGAHRGEQTTSQVSWE [H10G], the protein stability index was found to be 3.87. As for LEAAEVILETAHRGEQTTSQVSWE [H10T], the protein stability index amounted to 4.65. Consider LEAAEVILEPAHRGEQTTSQVSWE [H10P], for which the protein stability index is 4.41. For the variant LEAAEVILEIAHRGEQTTSQVSWE [H10I], the protein stability index came out at 2.88. As for LEAAEVILEVAHRGEQTTSQVSWE [H10V], the figure is 3.92; as for LEAAEVILEQAHRGEQTTSQVSWE [H10Q], 4.88. The result for LEAAEVILEMAHRGEQTTSQVSWE [H10M] reads 3.15.

For LEAAEVILEEAHRGEQTTSQVSWE [H10E], the protein stability index was found to be 5.19.

As for LEAAEVILENAHRGEQTTSQVSWE [H10N], the protein stability index is 3.78.

With LEAAEVILEFAHRGEQTTSQVSWE [H10F], the protein stability index was found to be 3.05. Consider LEAAEVILEYAHRGEQTTSQVSWE [H10Y], for which the protein stability index amounted to 3.15. The result for LEAAEVILECAHRGEQTTSQVSWE [H10C] reads 3.63; that for LEAAEVILELAHRGEQTTSQVSWE [H10L], 4.34. With LEAAEVILESAHRGEQTTSQVSWE [H10S], the protein stability index stood at 4.41.

For LEAAEVILEKAHRGEQTTSQVSWE [H10K], the protein stability index was 4.48. Consider LEAAEVILEHAHRGRQTTSQVSWE [E15R], for which the protein stability index is 3.87. With LEAAEVILEHAHRGHQTTSQVSWE [E15H], the protein stability index was 3.87. For LEAAEVILEHAHRGDQTTSQVSWE [E15D], the protein stability index turned out to be 4.22. For LEAAEVILEHAHRGKQTTSQVSWE [E15K], the protein stability index was found to be 3.46. LEAAEVILEHAHRGAQTTSQVSWE [E15A]: the protein stability index came out at 3.79. As for LEAAEVILEHAHRGVQTTSQVSWE [E15V], the protein stability index worked out at 2.6.

Take LEAAEVILEHAHRGIQTTSQVSWE [E15I]: the protein stability index amounted to 3.31.

With LEAAEVILEHAHRGWQTTSQVSWE [E15W], the protein stability index was 2.2. The result for LEAAEVILEHAHRGQQTTSQVSWE [E15Q] reads 3.5; that for LEAAEVILEHAHRGNQTTSQVSWE [E15N], 4.7.

With LEAAEVILEHAHRGFQTTSQVSWE [E15F], the protein stability index was determined as 2.31.

With LEAAEVILEHAHRGLQTTSQVSWE [E15L], the protein stability index turned out to be 2.81.

Regarding LEAAEVILEHAHRVEQTTSQVSWE [G14V], the protein stability index worked out at 3.47.

As for LEAAEVILEHAHRYEQTTSQVSWE [G14Y], the protein stability index was 3.64. LEAAEVILEHAHREEQTTSQVSWE [G14E]: the protein stability index is 4.53. For the variant LEAAEVILEHAHRQEQTTSQVSWE [G14Q], the protein stability index was 4.63.

Turning to LEAAEVILEHAHRHEQTTSQVSWE [G14H], the protein stability index is 4.28. Consider LEAAEVILEHAHRPEQTTSQVSWE [G14P], for which the protein stability index worked out at 4.29.

In the case of LEAAEVILEHAHRREQTTSQVSWE [G14R], the protein stability index amounted to 4.19. On to LEAAEVILEHAHRNEQTTSQVSWE [G14N], for which the protein stability index is 4.53.

Regarding LEAAEVILEHAHRSEQTTSQVSWE [G14S], the protein stability index is 4.46. The result for LEAAEVILEHAHRCEQTTSQVSWE [G14C] reads 4.2. On to LEAAEVILEHAHRIEQTTSQVSWE [G14I], for which the protein stability index was 3.85. On to LEAAEVILEHAHRFEQTTSQVSWE [G14F], for which the protein stability index turned out to be 2.88. As for LEAAEVILEHAHRAEQTTSQVSWE [G14A], the figure is 4.55. LEAAEVILEHAHRDEQTTSQVSWE [G14D]: the protein stability index is 4.68. As for LEAAEVILEHAHRTEQTTSQVSWE [G14T], the figure is 4.21. As to LEAAEVILEHAHRLEQTTSQVSWE [G14L], the protein stability index came to 3.76. For the variant LEAAEVILEHAHRMEQTTSQVSWE [G14M], the protein stability index amounted to 3.45.

LEAAEVILEHAHRGEATTSQVSWE [Q16A]: the protein stability index stood at 4.41.

As for LEAAEVILEHAHRGECTTSQVSWE [Q16C], the protein stability index was found to be 2.73.

As to LEAAEVILEHAHRGEITTSQVSWE [Q16I], the protein stability index was determined as 3.98. On to LEAAEVILEHAHRGEFTTSQVSWE [Q16F], for which the protein stability index is 3.53. On to LEAAEVILEHAHRGEYTTSQVSWE [Q16Y], for which the protein stability index stood at 3.69. As to LEAAEVILEHAHRGENTTSQVSWE [Q16N], the protein stability index stood at 3.97. As to LEAAEVILEHAHRGEETTSQVSWE [Q16E], the protein stability index amounted to 4.88.

On to LEAAEVILEHAHRGETTTSQVSWE [Q16T], for which the protein stability index is 4.33. LEAAEVILEHAHRGEHTTSQVSWE [Q16H]: the protein stability index was 4.05. LEAAEVILEHAHRGEKTTSQVSWE [Q16K]: the protein stability index amounted to 4.24.

LEAAEVILEHAHRGEMTTSQVSWE [Q16M]: the protein stability index was 3.57.

In the case of LEAAEVILEHAHRGEDTTSQVSWE [Q16D], the protein stability index was 4.9. With LEAAEVILEHAHRGEVTTSQVSWE [Q16V], the protein stability index turned out to be 4.13.

In the case of LEAAEVILEHAHRGERTTSQVSWE [Q16R], the protein stability index came to 4.14. For LEAAEVILEHAHRGEPTTSQVSWE [Q16P], the protein stability index is 4.05. For LEAAEVILEHAHRGEGTTSQVSWE [Q16G], the protein stability index stood at 4.42. The result for LEAAEVILEHAHRGESTTSQVSWE [Q16S] reads 4.4; that for LEAAEVILEHAHRGELTTSQVSWE [Q16L], 2.92; that for LEAAEVILEHAHRGEQTTAQVSWE [S19A], 2.6. With LEAAEVILEHAHRGEQTTCQVSWE [S19C], the protein stability index was 3.3.

Regarding LEAAEVILEHAHRGEQTTDQVSWE [S19D], the protein stability index is 5.11. As for LEAAEVILEHAHRGEQTTEQVSWE [S19E], the protein stability index came out at 4.75. Take LEAAEVILSHAHRGEQTTSQVSWE [E9S]: the protein stability index is 4.4. As for LEAAEVILMHAHRGEQTTSQVSWE [E9M], the figure is 2.66; as for LEAAEVILYHAHRGEQTTSQVSWE [E9Y], 2.33; as for LEAAEVILHHAHRGEQTTSQVSWE [E9H], 4.18.

On to LEAAEVILRHAHRGEQTTSQVSWE [E9R], for which the protein stability index came out at 3.39.

Consider LEAAEVILCHAHRGEQTTSQVSWE [E9C], for which the protein stability index stood at 3.04. As for LEAAEVILKHAHRGEQTTSQVSWE [E9K], the figure is 4.19; as for LEAAEVILDHAHRGEQTTSQVSWE [E9D], 4.33. With LEAAEVILIHAHRGEQTTSQVSWE [E9I], the protein stability index stood at 1.86. In the case of LEAAEVILWHAHRGEQTTSQVSWE [E9W], the protein stability index was 2.05. As for LEAAEVILNHAHRGEQTTSQVSWE [E9N], the protein stability index was found to be 3.8. LEAAEVILTHAHRGEQTTSQVSWE [E9T]: the protein stability index was determined as 3.62. As to LEAAEVILVHAHRGEQTTSQVSWE [E9V], the protein stability index worked out at 2.5. Consider LEAAEVILFHAHRGEQTTSQVSWE [E9F], for which the protein stability index is 2.54. Take LEAAEVILLHAHRGEQTTSQVSWE [E9L]: the protein stability index was found to be 2.52. As for LEAAEVILQHAHRGEQTTSQVSWE [E9Q], the protein stability index was 3.45. LEAAEVILGHAHRGEQTTSQVSWE [E9G]: the protein stability index is 3.87.

(Values after the supplement of paper PMC10567573.)
